Data taken from US20190352664A1, “COMPOSITIONS AND METHODS FOR CONTROLLING GENE EXPRESSION” (priority 2017, published 2019).

What was measured:
Arabidopsis = experiment: Ribo-seq and RNA-seq global translatome profiling (translational efficiency TE, mORF/uORF ribo-shift) upon elf18 treatment; format: in vivo; parameters: key to score (Ribo-shift): Up: ribo-shift up (i.e., increased mORF/uORF ratio); Down: ribo-shift down (i.e., decreased mORF/uORF ratio); details: elf18 vs Mock; for score (TE change): translational efficiency fold change, listed as shows 5′ UTR of the transcript
dual luciferase reporter = experiment: Dual luciferase assay (LUC/RLUC), transient expression; format: in vivo, N. benthamiana; details: 5′ leader sequence reporters
LUC, GFPER, TBF1-YFP = experiment: Transient expression of uORF-controlled LUC, GFPER and TBF1-YFP; format: in vivo, N. benthamiana
LUC reporter = format: in vivo, Oryza sativa cultivar ZH11

B1: AT1G12580.1: 5′ UTR of transcript; phosphoenolpyruvate carboxylase-related kinase 1 (nucleic acid)
DNA: GAGAGAGGACTGGGTCTGGTCTCTTCGCTGCAACCTATAGCTGTTGTTTGCTCTTCGACGGGATTCTCACTACTCTTTTGCCAAAAAAAAGAGATCGGAGGTTCCGAAGGTGAATGCAGCTTGCGATTTCATAGAAAAGAAGATTCGTTTGCTGGATTAGGCTTATTTGTGTATCATAGCTTTGAGGTTTTAACTGAGATTTATTGATAGTGGAACTTAGGTTTTCGAGAGGTGTGAACAGTTGGGTAT
score (TE change) (Arabidopsis): TEup (448 had increased TEfc)

B2: AT1G59700.1: 5′ UTR of transcript; glutathione S-transferase TAU16 (nucleic acid)
DNA: ATTGTGTGGTGACAAGCAACACATGATATGTCCGTTTAGAAACAGACAAAATAAGAAGAAGAAGAAAGAGTCGTGGAGGATTCTTCATTCTTCCTCATCCTCTTCTTCACCGATTCATTAGAAACCAAATTACAAAAAAAAACGTCTATACACAAAAAAACAA
score (TE change) (Arabidopsis): TEdown (389 genes displayed decreased TEfc (|z|≥1.5))

B3: BET10: R-motif-dependent gene; 5′ leader sequence tested in dual luciferase reporter (nucleic acid, listed as Arabidopsis thaliana)
DNA: TTAGGGACGGGACACTAGAGAAGGGAGGGCAGAGAGCGATTTTGTTCTCTCTCTACTTCTCGGTCGTCTTCTTCGTCTCCACTCTAGGGTTTTACTCTATCTTCTTCTTCATCATCATCTTCTACACCAATCTCTAGCGTTAATCTGTTTCTGCTGGAGAAGATTTACGCTTGTTCCTCGGTTCTCTTACTTCTGCTCCGGTTCGATCGCTTGCTAAGTGTTTCGAGTTGGTTCGCACTTCGGTGGGCGATATC
TE when PAB2 was co-expressed (dual luciferase reporter): lower TE

B4: uORFsTBF1: 5′ leader sequence of TBF1 with two pathogen-responsive upstream open reading frames (nucleic acid)
DNA: TCTAGAAACAGCATCCGTTTTTATAATTTAATTTTCTTACAAAGGTAGGACCAACATTTGTGATCTATAAATCTTCCTACTACGTTATATAGAGACCCTTCGACATAACACTTAACTCGTTTATATATTTGTTTTACTTGTTTTGCACATACACACAAAAATAAAAAAGACTTTATATTTATTTACTTTTTAATCACACGGATTAGCTCCGGCGAAGTATGGTCGTCGTCTTCATCTTCTTCCTCCATCATCAGATTTTTCCTTAAATGGAAGAAACCAAACGAAACTCCGATCTTCTCCGTTCTCGTGTTTTCCTCTCTGGCTTTTATTGCTGGGATTGGGAATTTCTCACCGCTCTCTTGCTTTTTAGTTGCTGATTCTTTTTCCTTCGACTTTCTATTTCCAATCTTTCTTCTTCTCTTTGTGTATTAGATTATTTTTAGTTTTATTTTTCTGTGGTAAAATAAAAAAAGTTCGCCGGAG
suppression of cytosol-synthesized LUC and ER-synthesized GFPER (LUC, GFPER, TBF1-YFP; 35S promoter, vs mutant uorfs (ATG to CTG)): largely suppress
mRNA levels (LUC, GFPER, TBF1-YFP; LUC and GFPER): without significantly affecting mRNA levels
cell death induced by overexpression of TBF1 (TBF1-YFP) (LUC, GFPER, TBF1-YFP; vs 35S:uorfsTBF1-TBF1-YFP): tight enough to prevent cell death
translation of the LUC reporter in rice (LUC reporter; 35S:uORFsTBF1-LUC vs 35S:uorfsTBF1-LUC): could suppress translation of the reporter in rice
LUC mRNA levels in rice (LUC reporter; in vivo): without significantly influencing mRNA levels

B5: AT5G61010.1_3: uORF of AT5G61010.1; peptide SEQ ID NO: 38 (nucleic acid)
DNA: ATGTCAACTGGATTAAGCTTAAGTAGTAATGGTTTTTACTATGTTCATGTGGGGATTTCTCTTCCTCTCTGTTTACTTCATTCCGAGATGACTTGA
modifications: listed as DNA, chemistry not fully specified
score (Ribo-shift) (Arabidopsis; shift of mORF/uORF ratio, per uORF): Down

B6: ZIK3: R-motif-dependent gene; 5′ leader sequence tested in dual luciferase reporter (nucleic acid, listed as Arabidopsis thaliana)
DNA: ACTTGTTTCCTTATATATTCTTCTCCCTTTAAACATTTAATCTTTTCCTCTTCTACCATCTCCACAAATTCCAAACATCTCTCTCTCTTTCTCTCTCACACACAAAATTGCAGAAGAAGAAGAGTC
modifications: listed as DNA, chemistry not fully specified
TE when PAB2 was co-expressed (dual luciferase reporter): lower TE

B7: AT5G61010.1: 5′ UTR of transcript; exocyst subunit exo70 family protein E2 (nucleic acid)
DNA: TCTTTCCCTTCTTCTTCCCCAATAATCTCGCTGAAACTCTCTTGCTCTTGCTTCTAAAAATCTGTTCTTTGAGACTTTGATCACACAGTTATCAAAATCATAATCTCTTCTTTCCTGGTTTTTTTTTTTTTCTTCTTCTTCTTCCCGTTTCACGGTACGTTTACTCTGTTCGATCACCGAGTGTATGATAAAATGTTTCTGTGAAATCAAATAACATATCACTTTCTAATAAACATCAAAATTTCTCCTTTTTTACAGAAACAAGAAGTTTTTTTGGGAAAGCCGTTGACTTGACTTTTTCTTTGGGGTGTTGTGTGGGAGCTTATAGTATGGTACCATAAGTGGGAGCTTATAGTTTGGGGTGTTGTGTGGGAGCTTATAGTATGAGGAAAAATGTTAGATTTGAAGAATGCTTCACTGATTTTTTACCATAAGTATGTCAACTGGATTAAGCTTAAGTAGTAATGGTTTTTACTATGTTCATGTGGGGATTTCTCTTCCTCTCTGTTTACTTCATTCCGAGATGACTTGAGATTTTTTCAAAGTATAGTTCTTGGAGTTAAGCTTACCTAGTAATCACTTTATATAACATCCCTTCGTTTACATTTGTGCTTTCACCTGGAAACACTTTAGACTTTTCTCTCTTCTGCCGTGTGTATTTAGTTGTCTAGTCAAATTTAAGTTGAGTTTAGGCTCTAGTCTTTGGTTTTGGTT
score (TE change) (Arabidopsis): TEdown (389 genes displayed decreased TEfc (|z|≥1.5))

B8: AT1G30330.1: 5′ UTR of transcript; auxin response factor 6 (nucleic acid)
DNA: CTTCTTCTTCTGATTCTCATTTCAAATAAGAGAGAGAGAGAGAGAAGTAAGTAAAACTTTAGCAGAGAGAAGAATAAACAAATAATTATAGCACCGTCACGTCGCCGCCGTATTTCGTTACCGGAAAAAAAAAATCATTCTTCAACATAAAAATAAAAACAGTCTCTTTCTTTCTATCTTTGTCTATCTTTGATTATTCTCTGTGTACCCATGTTCTGCAACAGTTGAGCAAGTGCATGCCCCATATCTCTCTGTTTCTCATTTCCCGATCTTTGCATTAATCATATACTTCGCCTGAGATCTCGATTAAGCCAGCTTATAGAAGAAGAAACGGCACCAGCTTCTGTCGTTTTAGTTAGCTCGAGATCTGTGTTTCTTTTTTTCTTGGCTTCTGAGCTTTTGGCGGTGGTGGGTTTTTCTGGAGAAACCCAAACGACTATCAAAGTTTTGTTTTTTACAATTTTAAGTGGGAGTTATGAGTGGGGTGGATTAAGTAAGTTACAAGTATGAAGGAGTTGAAGATTCGAAGAAGCGGTTTTGAAGTCGGCGAGACCAAGATTGCGAGCTTATTTGGCTGATGATTTATTTCAGGGAAGAAGAAATAAATCTGTTTTTTTTAGGGTTTTTAGATTTGGTTGGTGAATGGGTGGGAGGTGGAGGGAAACAGTTAAAAAAGTTATGCTTTTAGTGTCTCTTCTTCATAATTACATTTGGGCATCTTGAAATCTTTGGATCTTTGAAGAAACAAAGTTGTGTTTTTTTTTTTGTTCTTTGTTGTTTGCTTTTTAAGTTAGAATAAAAA
score (TE change) (Arabidopsis): TEdown (389 genes displayed decreased TEfc (|z|≥1.5))
